In paper doi:10.1101/2025.02.26.640323, “Aggregation-Dependent Epitope Sequence and Modification Fingerprints of Anti-Aβ Antibodies” (bioRxiv, 2025):
Entries after “also recorded” stand apart in the source; their conditions may differ.

How the values were obtained:
[1] = Isoelectric point on CIEF immunoassay; type: physicochemical; settings: Peggy Sue
Description: (§1) Automated capillary isoelectric focusing immunoassays were performed with a Peggy-Sue system (ProteinSimple,San Jose, California, USA), essentially as previously described and [53].
(§2) In brief, synthetic Aβ peptide variants were separated by isoelectric focusing in microcapillaries followed by photochemical immobilization to the inner capillary walls and probing with the primary antibodies for 120 min. After 2 washes, the horseradish peroxidase conjugated secondary antibodies were loaded and incubated for 60 min. After two washing steps, a luminol/peroxide mix was loaded, and chemiluminescent signals were recorded. The data was analyzed with the Compass for SW software. The following secondary antibodies were used: Anti-human IgG Secondary HRP antibody (Protein Simple, catalog number 043–491), Goat-Anti-Mouse-HRP Secondary Antibody ProteinSimple, catalog number 040–655) and Peroxidase-conjugated Affini Pure Donkey Anti-Human IgG (H+L) (1:100 dilution) (Jackson ImmunoResearch Laboratories Inc., West Grove, PA, code number 709–035-149).

[2] = tested on: amyloid precursor protein (APP770) residues 649–722; assay: Peptide microarray epitope pre-screening (overlapping 15-mers); type: binding, human; settings: 0.5–1 μg/mL antibody; for Array: epitope identified in this study on microarrays: Aβ residue numbers, 15-mer peptides overlapping by 14AAs on cellulose conjugates, chemiluminescence
Description: Information regarding binding epitopes and /or immunogens for most of the tested Aβ-Abs has been published and is summarized in Table 1. However, the binding epitope information was derived from varying methodologies. To provide an initial side-by-side comparison we pre-screened all of the listed Aβ-Abs in array format using copies of peptide libraries and standard antibody concentrations of 0.5–1 μg/mL (Figure 1a). The library comprised the amyloid precursor protein (APP770) residues 649–722, corresponding to the canonical Aβ1–42 amino acid sequence with additional 23 amino terminal and 9 carboxy terminal residues. […] For optimal signal to noise ratios and ideal selectivity profiles on the microarrays, the Aβ-Ab concentrations were adjusted for 3D6, 82E1, 11H3, 80C2 and 7H3D6 (Figure 1 – figure- supplement 1) and (Appendix 1–7). […] Specifically, Donanemabbs, 2–48 and Aβ-pE3 were raised against AβpE3-x (Table 1) and were expected to show preference for Aβ peptides starting with a pE(3).
Figure 1. Microarray workflow and Aβ-Ab epitope pre-screening. (a) Schematic of the microarray workflow. The library comprised the amyloid precursor protein (APP) residues 649–722 (APP770 numbering), corresponding to Aβ residues −23 to 51, as a library of 15-mer peptides overlapping by 14AAs, copied in dozens, and probed for Aβ-Abs binding followed by analysis in MARTin. (b) The epitope screening binding data are summarized as a heatmap. Blue and red shades indicate the relative binding strength of the related arrayed peptides to the left and cognate Aβ-Ab on top. The blue – red scale is visualizing the normalized binding intensity for each antibody individually. The applied antibody concentrations ranged between 0.5–1 μg/mL.
The μSPOT assay was performed as previously described. […] Peptide arrays were synthesized using MultiPep RSi robot (CEM GmbH, Kamp-Lintford, Germany) on cellulose discs containing Fmoc-β-Ala linkers. Natural amino acid building blocks were purchased from IRIS (IRIS Biotech GmbH, Marktredwitz, Germany). Special building blocks employed in this study such as isomers, stereoisomers, phosphorylation and pyroglutamination […] modifications are listed here: Fmoc-L-Ser(PO(OBzl)OH)-OH (Iris – FAA1423), L-Pyroglutamic acid pentachlorophenyl ester (Novabiochem - 8.54203), Fmoc-L-Asp-OtBu (Iris – FAA1356), Fmoc-D-Asp-OtBu (Carbosolutions – CC05095) and Fmoc-D-Asp(tBu)-OH (Iris – FAA1309). Synthesis was carried out by deprotecting the Fmoc-group using 20% piperidine in dimethylformamide (DMF). Peptide chains were elongated using a coupling solution consisting of amino acids (0.5M) with oxyma (1M) and DIC (1M) in DMF (1:1:1). Coupling steps were carried out 3 times (30min), followed by capping (4% acetic anhydride in DMF). Discs were transferred into 96 deep-well plates for the work-up.

[3] = tested on: AβpE3-x; assay: PTM-Aβ microarray, pE3; type: binding, human; settings: Donanemabbs 0,0012μg/mL, 2–48, Aβ-pE3, IC16 […], vs Aβ3-x with non-cyclized Glu
Source text: Specific PTMs might be associated with different stages of AD progression and severity, offering potential biomarkers for diagnosis and prognosis. Targeting PTMs represents a potential therapeutic strategy to prevent Aβ aggregation and neurotoxicity, thereby slowing disease progression. […] Therefore, a selected group of PTM-carrying Aβ peptides (PTM-Aβ) were incorporated into the Aβ chip to explore the potential binding preference of selected Aβ-Abs, under optimized concentrations (Figure 3). The antibodies were tested with both PTM-Aβ and the corresponding unmodified variants to provide a head-to-head comparison. This screening was performed in the presence of Aβ phosphorylated at positions Ser(8) or Ser(26), N-terminal pE at position 3, racemization/isomerization of Asp at position 1, and unmodified N-terminal variants. The dataset is divided into sections (Figure 3 a–f) for enhanced visualization, where each antibody was screened simultaneously against all peptides to locate their epitope preferences. […] A set of antibodies without reported PTM preference was applied here as controls (refer to Table 1), namely 11H3, 101–1-1, IC16, 82E1 and 3D6.
Figure 3. […] Blue and red shades indicate the binding strength over the related arrayed […] modified peptide shown on top and cognate anti-Aβ antibody to the left. […]

[4] = tested on: Aβ; settings: cited from earlier work
[5] = tested on: CAA fibrils; settings: ref [38],[47]; cited from earlier work
Source text: Despite extensive structural, genetic, and pre-clinical investigations, clinical trials of Aβ antibodies have yielded ambiguous outcomes. Aβ antibody binding to cerebral amyloid angiopathy (CAA) has been hypothesized to correlate with the frequency of amyloid-related imaging abnormalities with edema (ARIA-E) observed in patients treated with Aβ-based immunotherapies.

[6] = tested on: endogenous soluble Aβ in pooled human CSF; assay: IP-MS from pooled human CSF; type: binding; settings: 250 μL pooled human CSF, CHCA matrix; two replicate measurements each from two independent immunoprecipitations
[7] = tested on: Aβ1–42 monomer, oligomer and fibril preparations; AβpE3–40; assay: Bistris-SDS gradient PAGE/Western blot; type: binding; settings: 4–12% Bistris SDS-PAGE/Western blot
Description: No SPR-487B) (StressMarq biosciences, Victoria, BC, Canada). The samples for electrophoresis were prepared (starting from stock solutions) with final concentrations of 0.1 μg/μL) in LDS sample buffer (247.5 mM Tris-HCl, pH 8.5, 2% (w/v) lithium dodecyl sulfate (LDS), 10% (v/v) glycerol, 0.5 mM EDTA, 0.22 mM Brilliant Blue G250, 0.175 mM Phenol Red) and denatured by heating at 70°C for 10 min. […] The prechilled transfer buffer contained 25 mM Tris, 192 mM glycine, 20% (v/v) methanol and 0.0375 % Tween-20. After blotting, the membrane was washed for 10 min at room temperature in Tris-buffered saline (TBS) followed by blocking for 30 min with 5% powdered milk in TBS containing 0.1% Tween-20 (TBS-T). The blots were then incubated with primary antibodies in 5% milk in TBS-T over night at 4°C and washed 3 × for 10 min with TBS-T at room temperature. […] After 1 h incubation with the secondary antibodies, the blots were washed 3 × for 10 min with TBS-T and incubated for 5 min with ECL-Prime Western Blotting Detection Reagent (Cytiva Amersham, Little Chalfont, England). Images were recorded on a Vilber-Loumart Fusion SL blot imager. […] That way, the 4G8 reprobing signals were essentially added on top of the initial signals and background artifacts.

[8] = tested on: synthetic Aβ peptides; assay: Peptide Bicine-Tris SDS-PAGE/Western blot; type: binding; settings: PVDF, 50 ng per peptide, 0.5 μg/mL antibody
[9] = tested on: synthetic Aβ peptide variants; assay: Capillary isoelectric focusing (CIEF) immunoassay; type: binding; settings: Peggy Sue, chemiluminescence
Description: as §1, §2

[10] = tested on: Aβ vascular and parenchymal deposits in AD brain sections; assay: Immunohistochemistry on AD brain tissue with antibody pre-adsorption; design: species or system human
Description: Immunohistochemistry was performed on 4-μm paraffin sections. In brief, brain sections were deparaffinized in Roticlear (Carl Roth, Karlsruhe, Germany) and rehydrated in a descending series of ethanol. Activity of endogenous peroxidases was blocked by incubation in 0.3% H2O2 in PBS for 30 min. […] Antibodies and peptides were incubated on a rotator for 3 h at room temperature and reaction tubes were centrifuged at 13000 rpm for 5 min at the end of the incubation period. Control conditions included antibodies in 0.01 M PBS including 10% FCS without synthetic peptides. Adjacent paraffin-embedded sections from a human AD case were incubated overnight with the supernatants and sections were washed with 0.01 M PBS including 0.1 % Tergitol. For detection, biotinylated anti-human antibodies (6 μg/ml, Jackson ImmunoResearch, West Grove, Pennsylvania, USA #109-065-003) were used and staining was visualized with the ABC method with a Vectastain kit (Vector Laboratories, Newark, California, USA), diaminobenzidine as a chromogen and counterstaining with hematoxylin.

[11] = tested on: Alzheimer's disease patients; settings: cited from earlier work
[12] = Lecanemabbs #BXC-SIM0032, 0.06 μg with 0.25 μg peptide

Aβ1–40: synthetic Aβ peptide, AnaSpec
pI [1]: 5.31

Aβ1–42: synthetic Aβ peptide, AnaSpec; monomers, oligomers, fibrils from StressMarq
pI [1]: approx. 5.3

Aβ−3–40: N-terminally elongated Aβ, provided by H.-J. Knölker, Technische Universität Dresden
pI [1]: 6.04

Donanemab: Eli Lilly's Donanemab, approved in the US as Kisunla [reference compound]
Array: epitope identified in this study on microarrays [2]: 3–10
binding in epitope pre-screening ([2]; unmodified Aβ-related 15-mers, generic pre-screening conditions): produced detectable signals in this pre-screening with unmodified Aβ-related peptides
selectivity for / binding to AβpE3-x [3]: cyclized AβpE3-x as the dominant binding determinant
reported selectivity for modified Aβ ([4]; ref [47],[64],[57],[14]): selective for AβpE3; also recorded: known to recognize Aβ starting with cyclized pE3
binding to CAA fibrils [5]: binds to CAA fibrils in proportion to the amount of pyroglutamate-modified Aβ they present

B1: Lecanemabbs: humanized monoclonal, biosimilar of Lecanemab, Proteogenix (#PX-TA1746) and BioXCell (#BXC-SIM0032) (antibody, chains of the INN, looked up, V domains shown)
VH: EVQLVESGGGLVQPGGSLRLSCSASGFTFSSFGMHWVRQAPGKGLEWVAYISSGSSTIYYGDTVKGRFTISRDNAKNSLFLQMSSLRAEDTAVYYCAREGGYYYGRSYYTMDYWGQGTTVTVSS
VL: DVVMTQSPLSLPVTPGAPASISCRSSQSIVHSNGNTYLEWYLQKPGQSPKLLIYKVSNRFSGVPDRFSGSGSGTDFTLRISRVEAEDVGIYYCFQGSHVPPTFGPGTKLEIK
modifications: biosimilar
Array: epitope identified in this study on microarrays [2]: 3–7
immunoprecipitation of endogenous Aβ from CSF [6]: immunoprecipitated authentic biological Aβ peptides from pooled human CSF; also recorded: Aβ1–40, Aβ1–38, Aβ42, Aβ1–37 and Aβ1–39 were detected, albeit with relatively low signal intensities
preference for Aβ1–42 aggregation state [7]: a certain, but not absolute preference for aggregated forms of Aβ1–42 over monomeric and low-n oligomeric forms
Aβ variants detected on Bicine-Tris SDS-PAGE/Western blot [8]: recognized Aβ1–40, Aβ1–42, Aβ3–40 (pI approximately 5.97) Aβ-3–40 (aka. APP669–711),phosphorylated pSer8-Aβ1–40
Aβ variants detected on CIEF-immunoassay [9]: recognized Aβ1–40, Aβ1–42, Aβ3–40 (pI approximately 5.97) Aβ-3–40 (aka. APP669–711),phosphorylated pSer8-Aβ1–40; also recorded: detected Aβ1–40 (pI 5.31), Aβ2–40 (pI 5.98), Aβ3–40 (pI 5.97), Aβ−3–40 (pI 6.04), Aβ1–42 (pI approx. 5.3) and pSer8Aβ1–40 (amide) (pI 5.13–5.14)
IHC immunoreactivity after pre-adsorption with Aβ1–42 fibrils ([10]; Aducanumabbs 0.5 μg with 5 μg fibrils, Lecanemabbs (PX-TA1746) 0.06 μg with 0.25 μg, human AD brain, antibody for IHC: Aducanumabbs 0.5 μg/μl (so in the source)): efficiently blocked
IHC immunoreactivity after pre-adsorption with Aβ1–42 monomers ([10]; Aducanumabbs 0.5 μg with 10 μg monomers, Lecanemabbs (PX-TA1746) 0.06 μg with 0.25 μg, human AD brain): efficiently blocked
IHC blocking by Aβ1–16 (BioXCell lot) [10, 12]: did not
IHC blocking by Aβ1–34 (BioXCell lot) [10, 12]: did not
IHC blocking by Aβ1–38 (BioXCell lot) [10, 12]: did not
IHC blocking by Aβ1–42 monomers (BioXCell lot) [10, 12]: completely blocked Lecanemabbs binding
IHC immunoreactivity after pre-adsorption with Aβ1–42 oligomers ([10]; Lecanemabbs (PX-TA1746) 0.06 μg with 0.25 μg oligomers, human AD brain): efficiently blocked

B2: Lecanemab: designed at Uppsala University, humanized by BioArctic, later licensed to Eisai (antibody, chains of the INN, looked up, V domains shown)
VH: B1 VH
VL: B1 VL
Array: epitope identified in this study on microarrays [2]: 3–7
ARIA-E frequency ([11]; cross-study comparison, ref [38]): 13%
clinical outcome, Clarity AD ([11]; ref [45],[46]): positive results in the Clarity AD trial
binding to aggregated versus monomeric Aβ ([4]; ref [38],[40],[41],[83]): strong preference for Aβ protofibrils and to bind Aβ monomers only weakly; also recorded: preferably bind specific aggregated forms of Aβ over monomeric forms
preferential binding to fibrillar Aβ ([4]; ref [46]): preferential binding to fibrillar Aβ aggregates
